The source of these data is paper PMC3167633.

To fix the notation:
T1: Haa1(DBD)-His6 (Saccharomyces cerevisiae, UniProt Q12753 1-123)
T1 sequence: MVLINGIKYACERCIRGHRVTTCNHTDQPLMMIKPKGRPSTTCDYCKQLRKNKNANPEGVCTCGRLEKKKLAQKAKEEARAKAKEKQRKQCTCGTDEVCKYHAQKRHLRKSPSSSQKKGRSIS

B1: TPO3 wild-type HRE (GGCGAGGGG) (dsDNA)
DNA 1: TTCTCTGTGCTTGGCGAGGGGTTTACTGGAGCCCAATC
DNA 2: GATTGGGCTCCAGTAAACCCCTCGCCAAGCACAGAGAA
B2: HRE mutant 2 (GGCCAGGGG) (dsDNA)
DNA 1: B1 DNA 1 with G16C
DNA 2: B1 DNA 2 with C23G
B3: HRE mutant 6 (GGCGAGGCG) (dsDNA)
DNA 1: B1 DNA 1 with G20C
DNA 2: B1 DNA 2 with C19G
B4: HRE mutant 4 (GGCGAAGGG) (dsDNA)
DNA 1: B1 DNA 1 with G18A
DNA 2: B1 DNA 2 with C21T
B5: HRE mutant 1 (AGCGAGGGG) (dsDNA)
DNA 1: B1 DNA 1 with G13A
DNA 2: B1 DNA 2 with C26T
B6: HRE mutant 7 (GGCGAGGAG) (dsDNA)
DNA 1: B1 DNA 1 with G20A
DNA 2: B1 DNA 2 with C19T
B7: HRE mutant 5 (GGCGAGAGG) (dsDNA)
DNA 1: B1 DNA 1 with G19A
DNA 2: B1 DNA 2 with C20T
B8: HRE mutant 3 (GGCGCGGGG) (dsDNA)
DNA 1: B1 DNA 1 with A17C
DNA 2: B1 DNA 2 with T22G
B9: HRE mutant 8 (GGCGAGGGA) (dsDNA)
DNA 1: B1 DNA 1 with G21A
DNA 2: B1 DNA 2 with C18T

Changes are numbered by the printed parent chain.

For this series, the target named is T1, Haa1(DBD)-His6. Put plainly: SPR. In general terms: Surface plasmon resonance follows binding to a sensor surface in real time, without labels.
B1: binding was characterised by a dissociation constant (Kd) of 2 ± 0.2 nM. The result for B2 reads 4.3 ± 0.3 nM; that for B3, 38.5 ± 4.5 nM; that for B4, 396 ± 51.1 nM. The result for B5 reads 1.9 ± 0.3 nM; that for B6, 6780 ± 865 nM; that for B7, 21.4 ± 6.1 nM. To B8 belongs 13.6 ± 0.9 nM; to B9, 119 ± 3.6 nM.
